This is an account of results in PMC10403280.

Assay [1] has as its target Z domain of staphylococcal protein A, displayed on yeast (first protein, Z-A). In words: on-yeast cleavage-capture assay. As to conditions: 60 min after 3C protease cleavage; parent: est. 63; read off a plot.
For the next assay, the target named is affibody ZpA963. In words: SPR; BIAcore T100; about 100 RU of biotinylated affibody captured on a streptavidin (SA) chip, the partner flowed over in two-fold dilutions; HBS-P+; 1:1 binding model or steady-state affinity model; which partner was captured is not told. For orientation: In SPR one partner is held on a chip, and binding of the other changes the refractive index at the surface.

For the next assay, the target named is affibody Z_(SPA-1). Described as above.
Assay [2] deals with affibody ZpA963, second protein (Z-B) of the yeast-displayed single chain. Description: on-yeast cleavage-capture assay. As to conditions: 60 min after 3C protease cleavage; parent: est. 63; read off a plot.
For assay [3], the target named is Z domain of staphylococcal protein A, displayed on yeast (first protein, Z-A). Description: flow cytometry on cells; on-yeast cleavage-capture assay: Aga2-cMyc-ZA-linker (3C site)-ZB-HA on S. cerevisiae EBY100, stained with Alexa Fluor 488 anti-cMyc and Alexa Fluor 647 anti-HA antibody, cut with 3C protease (0.4 mg/mL in MACS buffer, 4°C); HA-tag MFI as % of the MFI before cleavage. Background: In flow cytometry, cells or beads pass a laser one at a time.

For assay [4] the target is unchanged. In words: flow cytometry on cells; on-yeast cleavage-capture assay, test of fluorescently labelled anti-HA antibodies of different valency (Fab, IgG mAb, Fab+streptavidin complex); staining after 3C cleavage as % of uncleaved cells.

With “affibody ZpA963, second protein (Z-B) of the yeast-displayed single chain I31V”, in assay [1], the response worked out at 30 % max.

Broadly, the Kd is the free concentration of one partner at which half of the binding sites on the other are occupied at equilibrium, for simple one-to-one binding. Take “Z domain of staphylococcal protein A (domain or fragment)”: the Kd was 0.01 µM with affibody ZpA963 and 2.92 µM with affibody Z_(SPA-1).

Turning to “affibody ZpA963, second protein (Z-B) of the yeast-displayed single chain L35I”, the response in assay [1] turned out to be 26 % max.

As to “Z domain of staphylococcal protein A, displayed on yeast (first protein, Z-A) L17I”, the response in assay [2] stood at 66 % max.

With “affibody ZpA963, second protein (Z-B) of the yeast-displayed single chain (designed binder)”, the % of HA-tag fluorescence kept after an hour of 3C protease cleavage in assay [3] was 68.7%. In assay [4], this substance showed a % of the staining of uncleaved cells kept after 3C cleavage (anti-HA Fab+SA complex) of 69.9% and a % of the staining of uncleaved cells kept after 3C cleavage (anti-HA IgG mAb) of 45.8%.
